Results reported in the Immune Epitope Database (IEDB).
One block for each sequence: values may come before it.

How the values were obtained:
[1] = target: HLA-B*40:01; test: IEDB peptide-MHC binding, purified MHC/direct/fluorescence; filed as Kd, often an IC50 or EC50 that approximates it; ≥ and ≤ were set here for values at or beyond the usual limits of such assays; conditions: source organism: Escherichia coli O157:H7
[2] = target: HLA-B*07:02; test: as above
[3] = target: HLA-A*24:02; test: as above
[4] = target: HLA-B*46:01; test: as above
[5] = target: HLA-B*27:05; test: as above
[6] = target: HLA-A*11:01; test: as above; conditions: source organism: Escherichia coli O157:H7
[7] = target: HLA-A*03:01; test: as above
[8] = target: HLA-B*58:01; test: as above
[9] = target: HLA-B*15:01; test: as above
[10] = target: HLA-A*02:01; test: as above; conditions: source organism: Escherichia coli O157:H7
[11] = target: HLA-B*44:02; test: as above
[12] = target: HLA-A*01:01; test: as above
[13] = target: HLA-A*02:03; test: IEDB peptide-MHC binding, purified MHC/competitive/fluorescence; filed as Kd, often an IC50 or EC50 that approximates it; ≥ and ≤ were set here for values at or beyond the usual limits of such assays
[14] = target: HLA-A*23:01; test: as above
[15] = target: HLA-A*02:12; test: as above
[16] = target: HLA-A*69:01; test: as above; conditions: source organism: Entamoeba histolytica HM-1:IMSS
[17] = target: HLA-A*68:02; test: as above; conditions: source organism: Entamoeba histolytica HM-1:IMSS
[18] = target: HLA-B*57:01; test: as above
[19] = target: HLA-B*46:01; test: as above
[20] = target: HLA-B*39:01; test: as above
[21] = target: HLA-A*03:01; test: as above; conditions: source organism: Entamoeba histolytica HM-1:IMSS
[22] = target: HLA-A*02:11; test: as above
[23] = target: HLA-A*02:19; test: as above
[24] = target: HLA-A*24:03; test: as above
[25] = target: HLA-A*02:16; test: as above; conditions: source organism: Entamoeba histolytica HM-1:IMSS
[26] = target: HLA-B*15:01; test: as above
[27] = target: HLA-A*02:01; test: as above
[28] = target: HLA-B*27:03; test: as above
[29] = target: HLA-A*31:01; test: as above; conditions: source organism: Entamoeba histolytica HM-1:IMSS
[30] = target: HLA-A*26:01; test: as above
[31] = target: HLA-B*51:01; test: as above
[32] = target: HLA-A*29:02; test: as above
[33] = target: HLA-B*18:01; test: as above
[34] = target: HLA-B*15:17; test: as above; conditions: source organism: Influenza A virus (A/red knot/Delaware/2561/1987(H10N5))
[35] = target: HLA-A*69:01; test: IEDB peptide-MHC binding, purified MHC/direct/fluorescence; filed as Kd, often an IC50 or EC50 that approximates it; ≥ and ≤ were set here for values at or beyond the usual limits of such assays; conditions: source organism: Influenza A virus (A/egret/Hong Kong/757.3/2002(H5N1))
[36] = target: HLA-B*08:02; test: as above; conditions: source organism: Influenza A virus(A/swine/Shandong/fNY/2003(H9N2))
[37] = target: HLA-B*08:01; test: as above; conditions: source organism: Influenza A virus (A/egret/Hong Kong/757.3/2002(H5N1))
[38] = source organism: Escherichia coli O157:H7
[39] = source organism: Entamoeba histolytica HM-1:IMSS
[40] = source organism: Influenza A virus (A/red knot/Delaware/2561/1987(H10N5))
[41] = source organism: Influenza A virus (A/egret/Hong Kong/757.3/2002(H5N1))

Kd [1]: ≥ 20 µM | Kd [2, 38]: ≥ 20 µM | Kd [3, 38]: ≥ 20 µM | Kd [4, 38]: ≥ 20 µM | Kd [5, 38]: ≥ 20 µM | Kd [6]: ≥ 20 µM | Kd [7, 38]: ≥ 20 µM | Kd [8, 38]: ≥ 20 µM | Kd [9, 38]: 0.196 µM | Kd [10]: ≥ 20 µM | Kd [11, 38]: ≥ 20 µM | Kd [12, 38]: ≥ 20 µM
Sequence: PLKVKDIPF

Sequence: RTFDRFFEE
Kd [13, 39]: ≥ 20 µM | Kd [14, 39]: ≥ 20 µM | Kd [15, 39]: ≥ 20 µM | Kd [16]: ≥ 20 µM | Kd [17]: ≥ 20 µM | Kd [18, 39]: ≥ 20 µM | Kd [19, 39]: ≥ 20 µM | Kd [20, 39]: ≥ 20 µM | Kd [21]: ≥ 20 µM | Kd [22, 39]: ≥ 20 µM | Kd [23, 39]: ≥ 20 µM | Kd [24, 39]: ≥ 20 µM | Kd [25]: ≥ 20 µM | Kd [26, 39]: ≥ 20 µM | Kd [27, 39]: ≥ 20 µM | Kd [28, 39]: ≥ 20 µM | Kd [29]: 0.318 µM | Kd [30, 39]: ≥ 20 µM | Kd [31, 39]: ≥ 20 µM | Kd [32, 39]: ≥ 20 µM | Kd [33, 39]: ≥ 20 µM

Sequence: VMTDGPANK
Kd [13, 40]: ≥ 20 µM | Kd [14, 40]: ≥ 20 µM | Kd [15, 40]: ≥ 20 µM | Kd [18, 40]: ≥ 20 µM | Kd [19, 40]: ≥ 20 µM | Kd [20, 40]: ≥ 20 µM | Kd [22, 40]: 0.199 µM | Kd [23, 40]: ≥ 20 µM | Kd [24, 40]: ≥ 20 µM | Kd [26, 40]: ≥ 20 µM | Kd [27, 40]: ≥ 20 µM | Kd [28, 40]: ≥ 20 µM | Kd [34]: ≥ 20 µM | Kd [30, 40]: ≥ 20 µM | Kd [31, 40]: ≥ 20 µM | Kd [32, 40]: ≥ 20 µM | Kd [33, 40]: ≥ 20 µM

Sequence: EEFTMVGRR
Kd [2, 41]: ≥ 20 µM | Kd [35]: ≥ 20 µM | Kd [36]: ≥ 20 µM | Kd [3, 41]: ≥ 20 µM | Kd [37]: ≥ 20 µM | Kd [4, 41]: ≥ 20 µM | Kd [5, 41]: ≥ 20 µM | Kd ([7]; source organism: Influenza A virus (A/Puerto Rico/8/34/Mount Sinai(H1N1))): 1.01 µM | Kd [8, 41]: ≥ 20 µM | Kd [9, 41]: ≥ 20 µM | Kd [11, 41]: ≥ 20 µM | Kd [12, 41]: ≥ 20 µM
